# Laboratory results published in patent US10000743B2, “2-deoxy-scyllo-inosose reductase” (Asahi Kasei Chemicals Corporation, priority 2013, dated 2018).
# Marks after values point to notes of the source that are not given here.
# Assays:
# [1] = target: T1, DOI reductase from Burkholderia terrae strain AKC-020 (Paraburkholderia terrae, UniProt A0ABM7TVX3); experiment: Substrate specificity of purified DOI reductase (oxidation reaction, NAD+ to NADH at 340 nm); assay type: biochemical; conditions: substrate 5 mM
# Description: A quantity of 10 μL of enzyme solution was added to 980 μL of 0.1 M buffer containing 1.0 μmol of NAD^+ and prewarmed for five minutes at 25° C. A quantity of 10 μL of each 0.1 M substrate was added and mixed immediately. The rate of increase in the absorbance (wavelength 340 nm) over two minutes was measured by spectrophotometer, and the activity by each substrate was compared. […] In the table, N.D. means that no reaction could be detected.
# [2] = target: T1, DOI reductase from Burkholderia terrae strain AKC-020; experiment: Km value and Vmax of purified DOI reductase; assay type: biochemical
# Description: (§1) The protein concentration of the enzyme solution was also measured by the Bradford method.
# [3] = DOI reducing activity of recombinantly expressed inositol dehydrogenases/DOIR; assay type: biochemical; conditions: for DOI reducing activity: expressed in E. coli BL21 (DE3); for catalytic activity to convert 2-deoxy-scyllo-inosose into (−)-vibo-quercitol / reduction of DOI (in words): recombinant expression in Escherichia coli
# Description: Specifically, the reaction solution composition other than DOI (990 μL) was taken by cuvette and prewarmed for approximately 5 minutes at 25° C. After adding DOI solution (10 μL) and mixing quickly, the rate of decrease in the absorbance (wavelength […]) over two minutes was measured using a spectrophotometer (Shimadzu, UV-2550) regulated to 25° C. with water as the control, and the decrease in absorbance per minute was calculated. Next, each strain was evaluated by calculating the U per mL of crude enzymatic solution, defining the amount that decreases [sic; converts]
# Furthermore, inositol dehydrogenase (Sf-Idh) from Sinorhizobium fredii USDA191 is an enzyme that oxidizes myo-inositol, and iolX (Bs-IolX) from Bacillus subtilis 168 is reported to encode an enzyme showing activity on scyllo-inositol. In addition, iolW (Bs-IolW) is said to be an NADPH-dependent inositol dehydrogenase. These six genes were introduced into an expression vector Pet21B(+) (Merck), and expressed by E. coli BL21 (DE3).
# [4] = Conversion of DOI to quercitol by enzymes from recombinant E. coli (HPLC, diastereomer excess); conditions: for Conversion rate: DOI to quercitol; for (−)-Vibo-quercitol produced: conversion of DOI; for Diastereomer excess of scyllo-quercitol: DOI converted to scyllo-quercitol
# Description: Specifically, DOI conversion was carried out using a coenzyme regeneration system by formate dehydrogenase (FDH hereinafter, Roche Diagnostics Inc., product no. 244678). […] The reaction solution was incubated for three hours while shaking at 30° C.
# [5] = substrate: O[C@@H]1[C@@H](O)[C@H](O)C[C@@H](O)[C@H]1O; experiment: purified protein, by the assay type; conditions: other: oxidation reaction
# [6] = substrate: NC(=O)c1ccc[n+]([C@@H]2O[C@H](COP(=O)(O)OP(=O)(O)OC[C@H]3O[C@@H](n4cnc5c(N)ncnc54)[C@H](O)[C@@H]3O)[C@@H](O)[C@H]2O)c1; experiment: Km value and Vmax of purified DOI reductase; assay type: biochemical, Burkholderia terrae; conditions: other: 0.1M Gly-NaOH, pH 9.0
# Description: as §1
# [7] = substrate: O=C1C[C@@H](O)[C@H](O)[C@@H](O)[C@@H]1O; experiment: Km value and Vmax of purified DOI reductase; assay type: biochemical, Burkholderia terrae; conditions: other: reduction reaction
# Description: as §1
# [8] = Optimum pH of purified DOI reductase (DOI reduction, NADH decrease at 340 nm); assay type: biochemical; conditions: buffers of each pH, 25° C.
# Description: A quantity of 10 μL of 0.1 M DOI was added and mixed immediately. The rate of decrease in the absorbance (wavelength 340 nm) over two minutes was measured by spectrophotometer, and the activity was compared at each pH.
# [9] = activity relative to the culture broth
molecule,measurement,setting,value
"O[C@@H]1[C@@H](O)[C@H](O)C[C@@H](O)[C@H]1O [(−)-vibo-quercitol, (1R,2R,4S,5R)-cyclohexane-1,2,3,4,5-pentol]",Substrate specificity (oxidation reaction),"[1]; pH 8.0, 25° C.",8.21 U/mg
same,Substrate specificity (oxidation reaction),"[1]; pH 9.0, 25° C.",13.93 U/mg
same,Vmax to (−)-vibo-quercitol,[2]; oxidation reaction,16.45 U/mg
"O=C1C[C@@H](O)[C@H](O)[C@@H](O)[C@@H]1O [DOI, 2-deoxy-scyllo-inosose]",Vmax to DOI,[2]; reduction reaction,116.28 U/mg
O[C@H]1[C@H](O)[C@@H](O)[C@H](O)[C@@H](O)[C@H]1O [Myo-inositol],Substrate specificity (oxidation reaction),"[1]; pH 8.0, 25° C.",3.21 U/mg
same,Substrate specificity (oxidation reaction),"[1]; pH 9.0, 25° C.",5.71 U/mg
"Ps-Idh: inositol dehydrogenase from Pseudomonas synxantha BG33R, homology with DOIR 68% (protein, Pseudomonas synxantha BG33R) MLRIAVLGAGRIAKIHAANVAAHPNATLVLVADPWREGVDALSTQLGCEAAYDCAAVLNRKDIDAVVIGTPTDTHIDLLLAAVAQGKAVLCEKPIDLDIAKARSAAQTVERQGGKVMLGFNRRFDPDMLRLRQALDAGQIGAVRQVIITSRDPGLAPREYLEHSGGILRDMTIHDFDTARHLLGEEPVQVSAFASRLVDPSLEQIDDYDSVMVLLRTASGKQCHINCCRQAVYGYDQRVEVSGASGVLLTDNHRPSTLRHWSAEHTEALEPLQHFFLERYADAYRNELMQFVDALNEGRELPTGMRDGLYALHLADCALESVKTGRSVAVCYDR",DOI reducing activity,[3]; [9],9.8 U/Ml culture
same,Conversion rate,[4]; from recombinant E. coli,≥99%
same,(−)-Vibo-quercitol produced,[4]; from recombinant E. coli,9.9 mM
"BS-IolW: NADPH-dependent inositol dehydrogenase from Bacillus subtilis 168, homology with DOIR 27% (protein, UniProt O32223 1-358, looked up) scyllo-inositol …: MITLLKGRRKVDTIKVGILGYGLSGSVFHGPLLDVLDEYQISKIMTSRTEEVKRDFPDAEVVHELEEITNDPAIELVIVTTPSGLHYEHTMACIQAGKHVVMEKPMTATAEEGETLKRAADEKGVLLSVYHNRRWDNDFLTIKKLISEGSLEDINTYQVSYNRYRPEVQARWREKEGTATGTLYDLGSHIIDQTLHLFGMPKAVTANVMAQRENAETVDYFHLTLDYGKLQAILYGGSIVPANGPRYQIHGKDSSFIKYGIDGQEDALRAGRKPEDDSWGADVPEFYGKLTTIRGSDKKTETIPSVNGSYLTYYRKIAESIREGAALPVTAEEGINVIRIIEAAMESSKEKRTIMLEH",DOI reducing activity,[3]; using NADPH as coenzyme,0.69) (using NADPH as coenzyme) U/Ml culture
same,catalytic activity to convert 2-deoxy-scyllo-inosose into (−)-vibo-quercitol / reduction of DOI (in words),[3],low ability
same,Remaining DOI,[4],9.9 mM
DOI reductase from Burkholderia terrae strain AKC-020 (Paraburkholderia terrae) (protein) MIRIAVLGAGRIGRIHAGNVAASPNAQLVVVADPVESAAKSLATRLGCEASTDPAGVLERKDIDAVVIGTPTDTHITFMLEAVRRGKAVLCEKPIDLDMEKSLAAANEVERQRGRVMLAFNRRFDPTSQAFRNAIDAGDVGEVRQVIISSRDPGMPPRDYVEHSGGIFRDMVIHDLDMARWLLGEEPVEVMAMASRLIDESLEKLTDFDTVMVQLRTASGKQCHINCCREAVYGYDQRMEVSGSKGMLLQENLRPSTIRRWSKEATDVREPLLNFFLERYEAAYKAELEAFVDALNTNSPLPTSVQDGLKALRLADAALESALSGKAVKV,Km,[5],"1.60 mM, 16.45 U/mg mM"
same,Km,[6],"0.11 mM (0.1M Gly-NaOH, pH 9.0) mM"
same,Km,[7],"0.41 mM, 116.28 U/mg mM"
"DOIR: 2-deoxy-scyllo-inosose reductase from Burkholderia terrae strain AKC-020, amino acid sequence SEQ ID NO: 2 (protein, Burkholderia terrae AKC-020) MIRIAVLGAGRIGRIHAGNVAASPNAQLVVVADPVESAAKSLATRLGCEASTDPAGVLERKDIDAVVIGTPTDTHITFMLEAVRRGKAVLCEKPIDLDMEKSLAAANEVERQRGRVMLAFNRRFDPTSQAFRNAIDAGDVGEVRQVIISSRDPGMPPRDYVEHSGGIFRDMVIHDLDMARWLLGEEPVEVMAMASRLIDESLEKLTDFDTVMVQLRTASGKQCHINCCREAVYGYDQRMEVSGSKGMLLQENLRPSTIRRWSKEATDVREPLLNFFLERYEAAYKAELEAFVDALNTNSPLPTSVQDGLKALRLADAALESALSGKAVKV",DOI reducing activity,[3]; [9],11.2 U/Ml culture
same,Conversion rate,[4]; from recombinant E. coli,≥99%
same,(−)-Vibo-quercitol produced,[4]; from recombinant E. coli,9.9 mM
same,pH of maximum activity,[8],7.0-9.0
"BS-IolX: iolX enzyme from Bacillus subtilis 168, reported activity on scyllo-inositol, homology with DOIR 36% (protein, UniProt P40332 1-342, looked up) scyllo-inositol …: MEHQVRCAVLGLGRLGYYHAKNLVTSVPGAKLVCVGDPLKGRAEQVARELGIEKWSEDPYEVLEDPGIDAVIIVTPTSTHGDMIIKAAENGKQIFVEKPLTLSLEESKAASEKVKETGVICQVGFMRRFDPAYADAKRRIDAGEIGKPIYYKGFTRDQGAPPAEFIKHSGGIFIDCSIHDYDIARYLLGAEITSVSGHGRILNNPFMEQYGDVDQALTYIEFDSGAAGDVEASRTSPYGHDIRAEVIGTEGSIFIGTLRHQHVTILSAKGSSFDIIPDFQTRFHEAYCLELQHFAECVRNGKTPIVTDIDATINLEVGIAATNSFRNGMPVQLDVKRAYTGM",DOI reducing activity,[3]; [9],0.13 U/Ml culture
same,catalytic activity to convert 2-deoxy-scyllo-inosose into (−)-vibo-quercitol / reduction of DOI (in words),[3],low ability
same,Remaining DOI,[4],0.4 mM
same,Diastereomer excess of scyllo-quercitol,[4]; from recombinant E. coli,≥99%
same,Diastereomer excess of scyllo-quercitol,"[4]; from recombinant E. coli, listed as Bs-IolX",99%
same,Conversion rate,[4]; from recombinant E. coli,96%
same,"scyllo-quercitol produced (printed in the (−)-vibo-quercitol column, footnote *)","[4]; from recombinant E. coli, converted into scyllo-quercitol",9.6* mM
"Bh-IolG: inositol dehydrogenase from Burkholderia sp. SJ98, homology with DOIR 79% (protein, Burkholderia sp. SJ98) MTRIAVLGAGRIGKIHAANVASNSDAKLVVVADPFEGAANSLAEKLGCEASTDCLSVIERDDVDAVVIGTPTDTHIQFMLHAVSKGKAVLCEKPIDLDMKKSLAAAKEVERHDGRVMLAFNRRFDPTSQAFRKAIDDGEVGDVRQVVITSRDPGMPPREYVTHSGGIFRDMVIHDLDLARWFLGEEPIEVMATGSRLVEPSLAEVPDFDTVMLQLRTESGKQCHINCCREAVYGYDQRLEVFGSRGMLLQENLRPSTIRRWSASATDAREPLLNFFLERYEAAYKTELTAFVEALRTNTTFPTSVADGLKALRLADCALESAMSCRSVKV",DOI reducing activity,[3]; [9],11.7 U/Ml culture
same,Conversion rate,[4]; from recombinant E. coli,≥99%
same,(−)-Vibo-quercitol produced,[4]; from recombinant E. coli,9.9 mM
"Pa-Idh: inositol dehydrogenase from Pantoea sp. At-9b, homology with DOIR 58% (protein, Pantoea sp. At-9b) MKIAVLGAGRIGNVHAMNVASNPNVELVAIADPFIDNAIKLTEKYGGKAVKEPMELIESNAVDAVIIATPTDTHVDLMLSAARNGKAVLCEKPVDLNLERAEVACAELKQCDVPVMIAFNRRFDPSAAEMHSAIAKGEVGELHQIMISSRDPGFASMDYLRHSGGIFRDMTIHDFDMARWLLGEEPVQVFASASRMLEPALEPLNDFDTVMVQMITKSGKQCHINCSRQAVYGHDQRIEAYGSAGMLLNDNLRPSTLRRFNKSATDARVPLVHFFLERYADAYRMELEAFISAVKHAKPVPVTPYDGYMALKLADCAQQSAETGLPVQL",DOI reducing activity,[3]; [9],8.4 U/Ml culture
same,Conversion rate,[4]; from recombinant E. coli,≥99%
same,(−)-Vibo-quercitol produced,[4]; from recombinant E. coli,9.9 mM
